# PMC8431494
# Molecular target: BST-2 with N-terminal SmBiT (UniProt Q10589)
# Test: split reporter (BiFC, NanoBiT); HEK293T cells in 96-well plates co-transfected 1:1 with plasmids for the Vpu and BST-2 LgBiT/SmBiT fusions; Nano-Glo Live Cell Substrate added, luminescence read in live cells; negative control HaloTag with SmBiT
# Sequence of UniProt Q10589 (Q10589 1-161): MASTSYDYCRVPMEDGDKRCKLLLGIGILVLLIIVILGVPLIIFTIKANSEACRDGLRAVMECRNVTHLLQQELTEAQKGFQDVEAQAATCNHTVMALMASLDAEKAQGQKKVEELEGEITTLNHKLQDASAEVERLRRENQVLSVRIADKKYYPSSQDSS
# Sequence of Vpu with C-terminal LgBiT (P05919 whole entry): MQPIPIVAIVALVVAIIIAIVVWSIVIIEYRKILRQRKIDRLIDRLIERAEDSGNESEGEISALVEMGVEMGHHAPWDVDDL
substance,measurement,value
Vpu with C-terminal LgBiT (from UniProt P05919 1-82) (natural protein),fold luminescence over control 15 min after adding substrate,100 fold
same,fold luminescence over control (Vpu with C-terminal LgBiT and HaloTag with SmBiT),95 fold
